Converted amounts (≈) assume the structure as drawn. One block for each molecule: values may come before it.
Legend:
HT-29 = experiment: Tumor cell proliferation, HT-29; type: cell-based; conditions: Homo sapiens; HT-29, 72 hours
Method: (§1) Cell Proliferation Assay. The effect of rK5 and rK5 peptides on endothelial cells were assessed using a proliferation assay with 1% BSA and 3 ng/ml bFGF in serum-free media. Relative cell numbers in each well of a 96 well microplate after incubation for 72 hours in the absence or presence of inhibitors were determined by using the AQueous cell proliferation assay (Promega, San Luis Obispo, Calif.). For all other cell lines tested for proliferation, minimal growth media was used (Cao, Y., Ji, R., Davidson, D., Schaller, J., Marti, D., Sohndel, S., McCance, S., O'Reilly, M., Llinas, M., and Folkman, J. Kringle domains of human angiostatin. Characterization of the anti-proliferative activity on endothelial cells. (1996) J. Biol. Chem. 271, 29461-29467). Results are presented as the percent inhibition of control cell (bFGF-induced) proliferation.

LNCaP = experiment: Tumor cell proliferation, LNCaP; type: cell-based; conditions: Homo sapiens, 72 hours
Method: as §1

P388 = experiment: Tumor cell proliferation, P388; type: cell-based; conditions: Mus musculus; P388, 72 hours
Method: as §1

B16F10 = experiment: Tumor cell proliferation, B16F10; type: cell-based; conditions: Mus musculus, B16-F10; B16F10, 72 hours
Method: as §1

D54 = experiment: Tumor cell proliferation, D54; type: cell-based, human; conditions: Homo sapiens; D54, 72 hours
Method: as §1

HT1080 = experiment: Tumor cell proliferation, HT1080; type: cell-based, human; conditions: Homo sapiens, HT-1080; HT1080, 72 hours
Method: as §1

[1] = biological target: GRP78 on the surface of human cells (EAHY, HMVEC, HT1080) (human) (UniProt P11021); experiment: cell-based or functional assay
Chain of GRP78 on the surface of human cells (EAHY, HMVEC, HT1080) (human) (P11021 19-654): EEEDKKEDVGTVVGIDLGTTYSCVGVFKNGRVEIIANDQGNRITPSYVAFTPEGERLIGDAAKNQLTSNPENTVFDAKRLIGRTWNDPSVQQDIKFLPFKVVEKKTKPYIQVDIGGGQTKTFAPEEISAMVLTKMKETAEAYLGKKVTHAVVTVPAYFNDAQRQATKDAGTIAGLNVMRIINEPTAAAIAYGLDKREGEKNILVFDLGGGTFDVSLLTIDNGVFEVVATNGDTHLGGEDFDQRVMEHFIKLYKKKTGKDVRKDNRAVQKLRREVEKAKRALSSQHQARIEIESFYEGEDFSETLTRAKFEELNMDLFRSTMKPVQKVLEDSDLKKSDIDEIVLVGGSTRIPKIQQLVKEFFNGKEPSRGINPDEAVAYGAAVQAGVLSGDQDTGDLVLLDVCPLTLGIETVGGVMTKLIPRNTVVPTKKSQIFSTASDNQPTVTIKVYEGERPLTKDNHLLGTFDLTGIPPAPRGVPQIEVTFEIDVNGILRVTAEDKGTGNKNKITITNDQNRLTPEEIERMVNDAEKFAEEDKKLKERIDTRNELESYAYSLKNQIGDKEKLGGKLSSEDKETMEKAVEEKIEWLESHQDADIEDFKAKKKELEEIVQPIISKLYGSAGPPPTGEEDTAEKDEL

[2] = biological target: GRP78 on the surface of human cells (EAHY, HMVEC, HT1080) (human) (UniProt P11021); experiment: Scatchard analysis of 125I-dog K5 binding to endothelial cells
[3] = biological target: GRP78 on the surface of human cells (EAHY, HMVEC, HT1080) (human) (UniProt P11021); experiment: Scatchard analysis of 125I-dog K5 binding to endothelial cells (50,000 cells per well, 1 hour room temperature)
[4] = biological target: T1, GRP78 on the surface of human cells (EAHY, HMVEC, HT1080) (human, UniProt P11021 19-654); experiment: cell-based or functional assay
T1 sequence (P11021 19-654): as above

[5] = biological target: T1, GRP78 on the surface of human cells …; experiment: cell-based or functional assay; remark: listed apart in the source
[6] = biological target: T2, yeast-expressed recombinant human GRP78 (rGRP78) (human, UniProt P11021 19-654, limits assumed); experiment: equilibrium dialysis of rGRP78 and 3H-K5 (FIG. 14A)
T2 construct: also called recombinant GRP78
T2 sequence (P11021 19-654 limits assumed): as the sequence (P11021 19-654) above

[7] = biological target: T1, GRP78 on the surface of human cells …; experiment: labelled K5 binding to endothelial cells (FIG. 10A)
HMVECs = experiment: Competition of 3HK5 binding to endothelial cells; set-up: species or system human; conditions: 2 nM 3HK5; rK5(K82A) up to 500 nM
Method: Each K5 peptide or a N-terminal antibody to GRP78 was added to HMVECs at various concentrations for 1 hour at room temperature. Cells were washed and the amount of ^3HK5 bound was counted.
Binding of human ^125IrK5 to Endothelial Cells: Tritium-labeled rK5 was added to monolayers of 50,000 HMVEC cells that were either starved or stimulated for 16 hours by 15 ng/ml bFGF and 5 ng/ml VEGF in 96 well plates. The number of counts remaining bound to the cells after extensive washing determined total amount of rK5 bound (Dudani A K, Ganz P R. Endothelial cell surface actin serves as a binding site for plasminogen, tissue plasminogen activator and lipoprotein(a). Br J Haematol. 1996 October; 95(1): 168-78). Binding of ^125IK5 (dog) to Endothelial Cells and rK5 to Recombinant GRP78: The same methods as described above for the expression and purification of human K5 were used to express dog rK5 in E. coli. ^125IK5 (dog) was added to the wells and incubated at room temperature for 1 hour. After 1 hour the cells were washed and lysed with M-Per (Pierce, Racine, Wis.) and the amount of ^125IK5 (dog) bound was counted. Scatchard plot analysis was performed using Prism (GraphPad Software, Inc., San Diego, Calif.) software. Competition binding against 5 nM ^125IK5 (dog) was tested using a monoclonal antibody against GRP78 (N-20, Santa Cruz, Calif.) or a monoclonal antibody against K5 (Green Mountain Antibodies, Burlington, Vt.). The antibodies were added to HMVECs at various concentrations for 1 hour at room temperature. Cells were washed and the amount of bound ^125IK5 (dog) bound was counted. Competition binding was also tested against 2 nM 3HK5. K5 peptides or a c-terminal antibody to GRP78 (A-129, Santa Cruz, Calif.) were added to HMVECs at various concentrations for 1 hour at room temperature. Cells were washed, lysed and the amount of ^3HK5 bound was estimated by scintillation counting.

[8] = biological target: T3, recombinant human GRP78 (rGRP78) (Homo sapiens, UniProt P11021); experiment: Equilibrium dialysis of rGRP78 and 3HK5; type: binding; conditions: competition dialysis, 2 nM GRP78 and 2 nM 3HK5; mutant up to 25-fold excess of GRP78
T3 construct: host or cells: yeast
T3 sequence (P11021 19-654): as above
Method: FIG. 14A is a graph showing equilibrium dialysis of recombinant GRP78 (rGRP78) and ^3HK5. ^3HK5 was added to one side of an equilibrium chamber at concentrations from 0.1 to 3 nM. 2 nM GRP78 was added to the other side of the chamber with a […] mwco filter between. ^3HK5 was allowed to equilibrate to both side of the chamber for 72 hours at room temperature. The amount of ^3HK5 on the GRP78 side of the chamber was compared to chamber with ^3HK5 alone to obtain the bound verses free rK5 distribution.
FIG. 14B is a graph showing competition binding dialysis rGRP78 and ^3HK5. Experiments were performed with 2 nM GRP78 and 2 nM ^3HK5 using rK5(K82A) mutant and unlabeled rK5 at various concentrations from 0.5 to 50 nM. The amount of ^3HK5 on both sides of the chamber was measured after 72 hours and compared to the control.
Binding of rK5 to rGRP78 was measured using equilibrium dialysis (Kariv I, Cao H, Oldenburg K R. Development of a high throughput equilibrium dialysis method. J Pharm Sci. 2001 May; 90(5):580-87). In the top well of a 96 well equilibrium dialyzer (molecular weight cut off 50K Daltons, Harvard Apparatus, Holliston, M A) 150 μl of 10 nM rGRP78 was added. In the reciprocal (bottom) chamber, 150 μl of increasing concentrations from 0.1 to 50 nM ^3HK5 was added. The chambers were shaken at room temperature for 72 hours. […]

- IC50 (HT-29): 118 ± 8 ng/mL (≈ 217 nM)
- IC50 (LNCaP): 410 ± 100 ng/mL (≈ 754 nM)
- IC50 (P388): 2.6 ± 0.2 ng/mL (≈ 4.78 nM)
- IC50 (B16F10): 3.2 ± 0.4 ng/mL (≈ 5.89 nM)
- IC50 (D54): 5 ± 0.4 ng/mL (≈ 9.2 nM)
- IC50 (HT1080): 2 ± 0.3 ng/mL (≈ 3.68 nM)
Molecule: COc1cccc2c1C(=O)c1c(O)c3c(c(O)c1C2=O)C[C@@](O)(C(=O)CO)C[C@@H]3O[C@H]1C[C@H](N)[C@H](O)[C@H](C)O1 [Adriamycin, reference compound]
- effect against D54 cell growth in combination with rK5 (D54 human glioma cells; Adriamycin 50 nM in combination with rK5, 72 hours): very effective
- inhibition of D54 cell growth, Adriamycin alone (D54 human glioma cells; Adriamycin 50 nM, 72 hours): did not inhibit

- IC50, inhibition of VEGF stimulated HMVEC migration [1]: 0.5 nM
- binding sites per cell (binding sites per cell) [2]: 32500
- Kd [3]: 0.8 nM
Molecule: recombinant dog kringle 5, radioiodinated (^125IrK5 (dog)) (ligand)

- IC50, endothelial cell migration assay (^3HK5) [4]: 0.2 nM
- apoptosis of HT1080 cells under hypoxic conditions [4]: > 2 fold
- IC50, inhibition of VEGF stimulated HMVEC migration [5]: 0.2 nM
- Kd [6]: ~0.7 nM
- Kd [7]: 0.8 nM
B1: recombinant human kringle 5 (rK5), Kringle 5 (450-543) of human plasminogen (ligand, UniProt P00747 469-562, looked up)
chain: LLPDVETPSEEDCMFGNGKGYRGKRATTVTGTPCQDWAAQEPHRHSIFTPETNPRAGLEKNYCRNPDGDVGGPWCYTTNPRKLYDYCDVPQCAA
modifications: tritium-labelled where printed as ^3HK5
notes: range 450-543; Made in E. coli (His-tag removed by enterokinase) and in Pichia pastoris; Labelled and unlabelled rK5 are treated as one molecule; also called ^3HK5; H^3K5

- blocking of 3HK5 binding to rGRP78 [8]: did not block binding
B2: rK5(K82A): mutant rK5(K82A) (protein)
chain: LLPDVETPSEEDCMFGNGKGYRGKRATTVTGTPCQDWAAQEPHRHSIFTPETNPRAGLEKNYCRNPDGDVGGPWCYTTNPRALYDYCDVPQCAA
- blocking of 3HK5 binding to endothelial cells (HMVECs): did not inhibit
